Source: article PMC7367873, “Dissecting the sequence determinants for dephosphorylation by the catalytic subunits of phosphatases PP1 and PP2A” (Nature Communications, 2020)

Key:
[1] = system: GFP-14-3-3β and its binding proteins; test: GFP-14-3-3β co-IP with LC-MS/MS label-free quantification, untreated versus PP1c-treated; design: species or system human; conditions: PP1 vs untreated; LFQ intensities, replicates 1-3
[2] = system: GFP-14-3-3β; test: GFP-14-3-3β co-IP with LC-MS/MS, untreated GFP-14-3-3β versus GFP control (14-3-3 interactome); assay type: binding, human; conditions: untreated vs GFP; LFQ intensities, replicates 1-3

Difference (log2), PP1 vs untreated [1] [log2]	Molecule	Difference (log2), untreated vs GFP [2] [log2]
-1.506	ZAK (protein, UniProt Q9NYL2 2-800, looked up) Mitogen-activated protein …: SSLGASFVQIKFDDLQFFENCGGGSFGSVYRAKWISQDKEVAVKKLLKIEKEAEILSVLSHRNIIQFYGVILEPPNYGIVTEYASLGSLYDYINSNRSEEMDMDHIMTWATDVAKGMHYLHMEAPVKVIHRDLKSRNVVIAADGVLKICDFGASRFHNHTTHMSLVGTFPWMAPEVIQSLPVSETCDTYSYGVVLWEMLTREVPFKGLEGLQVAWLVVEKNERLTIPSSCPRSFAELLHQCWEADAKKRPSFKQIISILESMSNDTSLPDKCNSFLHNKAEWRCEIEATLERLKKLERDLSFKEQELKERERRLKMWEQKLTEQSNTPLLPSFEIGAWTEDDVYCWVQQLVRKGDSSAEMSVYASLFKENNITGKRLLLLEEEDLKDMGIVSKGHIIHFKSAIEKLTHDYINLFHFPPLIKDSGGEPEENEEKIVNLELVFGFHLKPGTGPQDCKWKMYMEMDGDEIAITYIKDVTFNTNLPDAEILKMTKPPFVMEKWIVGIAKSQTVECTVTYESDVRTPKSTKHVHSIQWSRTKPQDEVKAVQLAIQTLFTNSDGNPGSRSDSSADCQWLDTLRMRQIASNTSLQRSQSNPILGSPFFSHFDGQDSYAAAVRRPQVPIKYQQITPVNQSRSSSPTQYGLTKNFSSLHLNSRDSGFSSGNTDTSSERGRYSDRSRNKYGRGSISLNSSPRGRYSGKSQHSTPSRGRYPGKFYRVSQSALNPHQSPDFKRSPRDLHQPNTIPGMPLHPETDSRASEEDSKVSEGGWTKVEYRKKPHRPSPAKTNKERARGDHRGWRNF	2.661
-1.5353	NOP2 (protein, UniProt P46087 1-812, looked up) 28S rRNA …: MGRKLDPTKEKRGPGRKARKQKGAETELVRFLPAVSDENSKRLSSRARKRAAKRRLGSVEAPKTNKSPEAKPLPGKLPKGISAGAVQTAGKKGPQSLFNAPRGKKRPAPGSDEEEEEEDSEEDGMVNHGDLWGSEDDADTVDDYGADSNSEDEEEGEALLPIERAARKQKAREAAAGIQWSEEETEDEEEEKEVTPESGPPKVEEADGGLQINVDEEPFVLPPAGEMEQDAQAPDLQRVHKRIQDIVGILRDFGAQREEGRSRSEYLNRLKKDLAIYYSYGDFLLGKLMDLFPLSELVEFLEANEVPRPVTLRTNTLKTRRRDLAQALINRGVNLDPLGKWSKTGLVVYDSSVPIGATPEYLAGHYMLQGASSMLPVMALAPQEHERILDMCCAPGGKTSYMAQLMKNTGVILANDANAERLKSVVGNLHRLGVTNTIISHYDGRQFPKVVGGFDRVLLDAPCSGTGVISKDPAVKTNKDEKDILRCAHLQKELLLSAIDSVNATSKTGGYLVYCTCSITVEENEWVVDYALKKRNVRLVPTGLDFGQEGFTRFRERRFHPSLRSTRRFYPHTHNMDGFFIAKFKKFSNSIPQSQTGNSETATPTNVDLPQVIPKSENSSQPAKKAKGAAKTKQQLQKQQHPKKASFQKLNGISKGADSELSTVPSVTKTQASSSFQDSSQPAGKAEGIREPKVTGKLKQRSPKLQSSKKVAFLRQNAPPKGTDTQTPAVLSPSKTQATLKPKDHHQPLGRAKGVEKQQLPEQPFEKAAFQKQNDTPKGPQPPTVSPIRSSRPPPAKRKKSQSRGNSQLLLS	2.385
